Laboratory results reported in patent publication US20240116985A1 (published 2024).
Starred links: 1 amine or outer side, 2 acyl side, 3 side chain; linkers in the order of their positions; H or OH if unused. Positions of bridges follow the written chain, without caps; N, C: chain ends. Non-standard residues stand in square brackets, D forms with d. Primed or numbered codes have the meaning given here. B5(10) = 2-amino-2-(pent-4-en-1-yl)hept-6-enoic acid, bis(4-pentenyl)glycine, stitching residue bearing both staples, C=CCCCC(CCCC=C)(N[*:1])C(=O)[*:2]; B5(4) = 2,2-bis(4-pentenyl)glycine = 2-amino-2-(pent-4-en-1-yl)hept-6-enoic acid (stitching residue), C=CCCCC(CCCC=C)(N[*:1])C(=O)[*:2]; TfeGA = (S)-2-amino-3-((carboxymethyl)(2,2,2-trifluoroethyl)amino)propanoic acid, O=C([C@H](CN(CC(=O)[*:3])CC(F)(F)F)N[*:1])[*:2]; PyrS2 = (S)-3-amino-1-((pent-4-en-1-yloxy)carbonyl)pyrrolidine-3-carboxylic acid, C=CCCCOC(=O)N1CC[C@@](N[*:1])(C(=O)[*:2])C1; B5(3) = 2,2-bis(4-pentenyl)glycine (stitching residue), C=CCCCC(CCCC=C)(N[*:1])C(=O)[*:2]; Phe(2-Cl) = N[C@@H](Cc1ccccc1Cl)C(=O)O; Bta = N[C@@H](Cc1csc2ccccc12)C(=O)O; αAllylPro = C=CC[C@@]1(C(=O)O)CCCN1; tBuAla = CC(C)(C)C[C@H](N)C(=O)O; S8 = C=CCCCCCC[C@](C)(N)C(=O)O; hSer = N[C@@H](CCO)C(=O)O

Assays:
[1] = biological target: T1, full-length beta-Catenin (Uniprot ID P35222) (Homo sapiens (Human), UniProt P35222 1-781); experiment: fluorescence polarization competition; full-length beta-catenin, competitor 5FAM-TCF4(10-53) probe
T1 construct: also called bCat; B-Catenin
T1 sequence: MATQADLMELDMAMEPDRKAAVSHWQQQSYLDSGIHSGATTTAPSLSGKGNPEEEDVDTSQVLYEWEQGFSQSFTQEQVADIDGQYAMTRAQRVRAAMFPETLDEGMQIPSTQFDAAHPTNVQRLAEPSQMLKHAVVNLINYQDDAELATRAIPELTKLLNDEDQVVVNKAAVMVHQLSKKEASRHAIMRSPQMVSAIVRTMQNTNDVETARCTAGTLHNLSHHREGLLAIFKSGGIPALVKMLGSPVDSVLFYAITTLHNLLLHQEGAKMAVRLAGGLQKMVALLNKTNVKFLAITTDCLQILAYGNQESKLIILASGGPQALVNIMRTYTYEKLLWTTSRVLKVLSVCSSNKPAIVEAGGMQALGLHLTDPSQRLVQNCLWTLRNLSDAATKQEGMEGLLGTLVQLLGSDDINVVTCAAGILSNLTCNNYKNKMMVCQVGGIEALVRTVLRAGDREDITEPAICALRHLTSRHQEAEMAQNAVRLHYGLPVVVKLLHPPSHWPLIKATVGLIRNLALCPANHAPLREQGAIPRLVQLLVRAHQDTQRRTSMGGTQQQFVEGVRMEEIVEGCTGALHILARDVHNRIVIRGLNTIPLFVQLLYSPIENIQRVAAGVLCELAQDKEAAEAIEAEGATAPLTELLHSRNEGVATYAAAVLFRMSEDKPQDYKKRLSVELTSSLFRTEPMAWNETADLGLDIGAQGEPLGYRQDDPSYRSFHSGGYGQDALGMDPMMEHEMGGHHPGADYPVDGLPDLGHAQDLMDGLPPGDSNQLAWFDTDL
In short: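 Plate incubated 60 minutes at 20° C. protected from light before reading. Concentrations given are final.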

B-cat-Halo [2] = biological target: T2, B-cat-Halo (UniProt P35222 1-781, HaloTag NanoBRET 618 Ligand bound in the assay); experiment: NanoBRET Abs IC50 in HEK293 cells; B-cat-Halo, competitor TCF4-Luc
T2 construct: Transfected into HEK293 cells for the NanoBRET assay; also called beta-catenin HaloTag NanoBRET construct; not shown: HaloTag
T2 sequence (looked up): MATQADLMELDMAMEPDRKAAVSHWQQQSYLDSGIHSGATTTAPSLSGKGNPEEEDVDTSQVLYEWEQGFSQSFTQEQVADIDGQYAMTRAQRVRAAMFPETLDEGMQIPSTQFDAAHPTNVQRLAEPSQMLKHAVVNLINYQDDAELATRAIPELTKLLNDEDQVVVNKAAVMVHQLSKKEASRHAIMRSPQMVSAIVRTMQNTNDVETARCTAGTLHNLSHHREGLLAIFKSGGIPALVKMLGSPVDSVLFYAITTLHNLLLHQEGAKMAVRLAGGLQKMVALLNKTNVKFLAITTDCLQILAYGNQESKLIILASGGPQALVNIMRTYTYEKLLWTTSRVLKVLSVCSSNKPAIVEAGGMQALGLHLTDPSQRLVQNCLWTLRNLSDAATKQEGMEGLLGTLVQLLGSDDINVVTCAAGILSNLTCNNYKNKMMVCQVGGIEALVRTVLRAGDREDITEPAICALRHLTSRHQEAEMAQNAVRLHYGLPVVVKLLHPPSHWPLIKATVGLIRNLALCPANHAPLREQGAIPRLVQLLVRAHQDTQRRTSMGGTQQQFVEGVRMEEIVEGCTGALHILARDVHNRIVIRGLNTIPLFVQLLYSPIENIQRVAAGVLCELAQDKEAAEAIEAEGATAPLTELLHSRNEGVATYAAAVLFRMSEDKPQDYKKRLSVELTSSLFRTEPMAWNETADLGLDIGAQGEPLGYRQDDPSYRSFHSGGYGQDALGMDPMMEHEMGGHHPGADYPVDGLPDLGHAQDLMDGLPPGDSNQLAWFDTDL

[3] = biological target: T3, full-length beta-Catenin (Uniprot ID P35222) (Homo sapiens (Human), UniProt P35222 1-781); experiment: fluorescence polarization competition; full-length beta-catenin + 5FAM-TCF4(10-53) probe
T3 construct: also called bCat; B-Catenin
T3 sequence: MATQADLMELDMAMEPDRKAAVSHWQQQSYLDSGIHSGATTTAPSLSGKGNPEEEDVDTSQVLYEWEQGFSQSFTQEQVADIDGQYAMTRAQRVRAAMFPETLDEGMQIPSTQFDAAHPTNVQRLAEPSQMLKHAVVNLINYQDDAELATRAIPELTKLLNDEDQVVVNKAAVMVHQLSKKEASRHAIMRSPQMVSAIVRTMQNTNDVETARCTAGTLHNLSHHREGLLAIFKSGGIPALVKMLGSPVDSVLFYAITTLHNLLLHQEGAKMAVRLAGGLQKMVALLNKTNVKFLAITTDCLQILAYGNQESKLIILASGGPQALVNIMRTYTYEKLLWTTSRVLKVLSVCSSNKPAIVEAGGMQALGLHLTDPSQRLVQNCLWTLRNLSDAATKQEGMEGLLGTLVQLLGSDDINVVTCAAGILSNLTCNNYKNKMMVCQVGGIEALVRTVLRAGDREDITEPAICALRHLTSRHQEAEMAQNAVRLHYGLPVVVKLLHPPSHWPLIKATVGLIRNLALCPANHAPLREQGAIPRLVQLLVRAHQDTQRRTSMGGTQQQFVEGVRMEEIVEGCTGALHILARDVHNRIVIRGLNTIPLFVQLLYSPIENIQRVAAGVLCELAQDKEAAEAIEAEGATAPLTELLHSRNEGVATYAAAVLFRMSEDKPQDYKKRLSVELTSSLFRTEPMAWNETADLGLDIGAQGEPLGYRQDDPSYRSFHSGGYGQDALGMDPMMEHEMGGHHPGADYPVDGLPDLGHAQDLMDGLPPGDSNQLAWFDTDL
Method: The plate was incubated protected from light for 60 minutes at 20° C. prior to read. Reads were performed on a CLARIOstar plate reader (BMG Labtech) in duplicate, and data were fitted to a 1:1 binding model with hill slope using an in-house script. All provided concentrations are final concentrations.

B-cat-Halo [4] = biological target: T4, B-cat-Halo (UniProt P35222 1-781); experiment: cell-based or functional assay
T4 sequence (looked up): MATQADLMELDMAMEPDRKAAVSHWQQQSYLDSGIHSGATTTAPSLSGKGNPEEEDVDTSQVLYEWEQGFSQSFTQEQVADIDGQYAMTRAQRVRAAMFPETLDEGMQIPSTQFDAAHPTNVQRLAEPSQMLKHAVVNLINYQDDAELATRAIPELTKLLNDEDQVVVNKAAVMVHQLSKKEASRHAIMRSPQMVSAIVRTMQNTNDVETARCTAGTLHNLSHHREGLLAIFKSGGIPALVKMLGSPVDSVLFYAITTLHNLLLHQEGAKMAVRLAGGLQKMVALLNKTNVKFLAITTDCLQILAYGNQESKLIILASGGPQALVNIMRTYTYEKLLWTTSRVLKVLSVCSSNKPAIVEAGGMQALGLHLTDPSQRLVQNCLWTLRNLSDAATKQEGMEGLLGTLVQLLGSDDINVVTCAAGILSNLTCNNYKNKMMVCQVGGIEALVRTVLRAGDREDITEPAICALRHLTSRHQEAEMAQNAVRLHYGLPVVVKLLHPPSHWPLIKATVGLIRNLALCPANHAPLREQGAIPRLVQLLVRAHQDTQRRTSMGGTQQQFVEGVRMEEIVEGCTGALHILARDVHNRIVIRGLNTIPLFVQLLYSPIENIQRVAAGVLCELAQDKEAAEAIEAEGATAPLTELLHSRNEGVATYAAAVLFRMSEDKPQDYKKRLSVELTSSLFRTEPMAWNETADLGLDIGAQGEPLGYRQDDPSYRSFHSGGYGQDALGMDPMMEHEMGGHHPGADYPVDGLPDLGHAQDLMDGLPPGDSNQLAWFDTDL

[5] = biological target: T5, beta-catenin in DLD1 TCF/LEF luciferase reporter cells (UniProt P35222 1-781); experiment: cell-based or functional assay
T5 sequence (looked up): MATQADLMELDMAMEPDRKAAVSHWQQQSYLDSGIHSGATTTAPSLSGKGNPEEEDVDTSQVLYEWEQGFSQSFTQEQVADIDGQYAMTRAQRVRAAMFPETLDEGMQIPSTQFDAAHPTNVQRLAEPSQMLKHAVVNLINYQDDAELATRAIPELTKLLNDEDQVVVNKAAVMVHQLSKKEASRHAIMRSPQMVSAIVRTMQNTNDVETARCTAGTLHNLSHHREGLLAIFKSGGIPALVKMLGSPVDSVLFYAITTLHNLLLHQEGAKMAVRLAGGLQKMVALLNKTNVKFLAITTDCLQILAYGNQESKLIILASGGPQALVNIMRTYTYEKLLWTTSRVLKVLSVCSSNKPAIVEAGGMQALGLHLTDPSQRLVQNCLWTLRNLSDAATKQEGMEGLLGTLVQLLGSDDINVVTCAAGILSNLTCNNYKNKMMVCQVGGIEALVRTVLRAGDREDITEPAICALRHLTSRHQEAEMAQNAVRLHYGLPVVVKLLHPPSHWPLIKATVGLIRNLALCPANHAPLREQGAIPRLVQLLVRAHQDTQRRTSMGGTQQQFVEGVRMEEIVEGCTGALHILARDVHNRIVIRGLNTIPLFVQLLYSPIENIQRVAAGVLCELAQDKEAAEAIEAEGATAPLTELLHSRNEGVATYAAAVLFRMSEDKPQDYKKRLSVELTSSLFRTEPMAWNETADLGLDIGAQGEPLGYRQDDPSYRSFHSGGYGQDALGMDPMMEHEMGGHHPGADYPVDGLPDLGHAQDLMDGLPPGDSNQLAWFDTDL

B1: I-750 (peptide)
peptide: Ac-[αAllylPro]DL[B5(4)]DEAAFN[S8]F[Bta]S-NH2
modifications: staple 1-4, 4-11; also: olefin E/Z not assigned, earlier-eluting staple isomer
notes: Stapled peptide; same description as I-751, earlier eluting staple isomer composition; also called Ac-PL3-Asp-Leu-B5-Asp-Glu-Ala-Ala-Phe-Asn-S8-Phe-BztA-Ser-NH2
In the case of B1, the IC50 [1] is reported as 0.043 µM and the IC50 (B-cat-Halo [2]) is reported as 7.4 µM.

B2: I-1286 (peptide)
peptide: Ac-[αAllylPro]NA[B5(10)]DTAAFL[PyrS2]F[Bta]Q-NH2
modifications: staple 1-4, 4-11; not fully specified; printed as Ac-PL3-Asn-Ala-B5-Asp-Thr-Ala-Ala-Phe-Leu-PyrS2-Phe-BztA-Gln-NH2
With B2 the EC50 [3] was 10 µM.

B3: I-999 (peptide)
peptide: Ac-[αAllylPro]D[tBuAla][B5(3)]D[TfeGA]AAFS[S8][Phe(2-Cl)][Bta][hSer]-NH2
modifications: staple 1-4, 4-11; also: later-eluting HPLC isomer
In the case of B3, the “NanoBRET Abs IC50” value (B-cat-Halo [4]) is reported as 26.3 µM and the “DLD1 4% Abs IC50” value [5] is reported as 5.6 µM.
